# Data taken from paper PMC5889621 (Proceedings of the National Academy of Sciences of the …, 2018).
# Residue numbers refer to the chain shown, from its start. In names and notes the source's numbering stands. Several values for one entry are separate records, joined by “and”; a condition that tells them apart may be missing. Identical values can stand only once.
# T1: LMAN1/ERGIC53 (endogenous) (human (endogenous in 293A)), P49257
# T1 chain: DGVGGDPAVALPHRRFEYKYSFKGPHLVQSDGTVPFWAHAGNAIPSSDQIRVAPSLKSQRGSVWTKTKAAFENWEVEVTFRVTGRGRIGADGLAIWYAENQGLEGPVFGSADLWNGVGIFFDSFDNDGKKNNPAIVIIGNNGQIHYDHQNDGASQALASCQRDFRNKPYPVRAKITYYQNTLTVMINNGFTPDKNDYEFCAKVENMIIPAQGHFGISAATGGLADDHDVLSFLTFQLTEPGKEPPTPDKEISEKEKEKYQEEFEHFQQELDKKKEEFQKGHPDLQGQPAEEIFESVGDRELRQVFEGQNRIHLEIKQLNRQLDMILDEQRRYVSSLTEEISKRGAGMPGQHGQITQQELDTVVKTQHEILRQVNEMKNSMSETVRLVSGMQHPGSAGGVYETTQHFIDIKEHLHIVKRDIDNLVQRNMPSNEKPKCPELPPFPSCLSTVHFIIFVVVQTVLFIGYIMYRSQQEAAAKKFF
# B1: LMAN1/ERGIC53 (endogenous), P49257 31-510 (natural protein)
# chain: T1 chain
# B2: Myc-LMAN1 C466A (natural protein, UniProt P49257 31-510, looked up)
# chain: T1 chain with C436A
# B3: Myc-LMAN1 C475A (natural protein, UniProt P49257 31-510, looked up)
# chain: T1 chain with C445A
# B4: Myc-LMAN1 C466A C475A double mutant (natural protein, UniProt P49257 31-510, looked up)
# chain: T1 chain with C436A, C445A
# Key:
# [1] = biological target: T1, LMAN1/ERGIC53 (endogenous) (human …); assay: SDS/PAGE without reducing agent and immunoblot; conditions: remark: other sources report otherwise
# [2] = biological target: the molecule itself; assay: SDS/PAGE without reducing agent and immunoblot
Binder,stoichiometry N [1],stoichiometry N [2]
B1,2 and 6,
B2,,2
B3,,2
B4,,2
